Measurements as given in the DeepSol protein solubility set.

assay: soluble on expression in E. coli; label from the status in PepcDB or PDB records

Soluble on expression in E. coli, not soluble:
MGSDKIHHHHHHMAEKPISLSQAPAGYSDWLSELKTKIHSAQQRATLAVNQELVLLYWQIGQEILTRQAELGWGAKVVERLAHDLRTAFPDMKGFSPRNLKYMRAFAEAWPDLEFVQALLAQLPWYHQLALLDKLDNTDSRTWYAQKALENHWSRNVLVMHIESGLHQRQGAAITNFAATLPKPQSDLARESIKDPYRFDFLGLTEAAQEREIEHALVQHVTQFLLELGAGFAFVGRQVLMQVGDEEFFIDLLFYHLKLRCYVVIELKTGKFKPEHLGQLSFYMTAIDKQVKTEPDNATIGLLLCKSKDKVVAEYALGDKSQAMGIAEYKLQQALPEVLESNLPSIEQIERELQGEA
MGSDKIHHHHHHMAEKTFINRLQLTDFRNYGSASLRLDGRHVVLTGNNGSGKTNLMEAVSFLSPGRGLRRAVLSDVARAGAASGFSIFASLEGMAGDVELGTGSEVLDETAVRRLRINGASVRSVDELTDHLRVLWLTPAMDGLFTGSSSERRRFLDRLVLSIDPQHGRRASDFERAMRSRNKLLSEGRFDASWLAGIEQQMAALGIAMALARQEMMRLLAALIEQRREPETFPGADLMLSGFMDEHAGTAAIDLEDTYRDSLAGSRGRDAAAGRTLEGPHRSDLLVRHREKDMEAERCSTGEQKALLIGLILAHAELVATMTGFAPILLLDEIAAHLDEGRRAALFDRIDVLGGQAFMTGTDAQMFASLGDRAQFVTVDDGHLSL
MGSDKIHHHHHHMAERLGILVGGGPAPGINSVISSVTIEAINNGLEVIGIYDGFKHLVEGKTNMVKKLSIEDVSRIHIEGGSILRTSRVNPAKSEETLEKTVQTLKKLGIKYLVTIGGDDTAFSASKVCERSKGEIKVVHVPKTIDNDLPLPENMPTFGFETARHVATELVYNLMQDSRTTNRWYFVAMMGREAGHLALGVGKAASATITIIPEEFKEGVTLEEVCDVLDGAILKRKLMGRDDGVAVIGEGIAEKMDPEELANIPGVIVEKDPHGHLRLAEIPLATILKRAIERRYAERGERIHIVDVTIGYELRSARPIPFDIVYTRTLGYGAVRFLLGDYSDLPGGMVCVVGGRIKILPFDAFMDPKTGRTKVRVVDVRSEDYRVARKYMIRLEKKDLEDPETLEKLAKLAKMEPEEFKKKYWHTTELP
MGSDKIHHHHHHMAESETGDKAGQASVKTALRVIEIMEIYAREGRSLTLTELAKLLGAPMSSCLGLIRTLASLGYLYETGRRQGYYPTSRLLNIAQRISRNDPLLERVQPVLETLRDATGETVIFGKLQDDGRVLYLEVRESQNPVRYTATPGELRDVHINSIGRAILGAMTDAARDAALAKVSFQPRTGRTVASREALEREIAMWQQQGWYPNFGESFPDLGAIAVPVEIGGAVYGMSVAGPIHRVESSVDPIVAALLRGQDALRT
MGSDKIHHHHHHMAFTESDVYNNEAFFEQYMKRRYRENSPNEALEKPAFFQLISDVKGKRILDLGCGDAKFGEELLEKGCHSYTGIEGSELMYEKAKKQLENKNGAVHFLNLKDYTYPPSTFDLVTSRLALHYIEHLPIIFQNVYETLKTNGTFTFSVQHPIITSSFESLQTSGKRTSWLVDDYFKLGKRVEPWIDQEVIKYHRTTEEYFTLLQQAGFTITNLKEATPDQTYFQNAEEYERRLRIPLFLLFSCRK
MGSDKIHHHHHHMAKERVDVLLVEQGLFDTREKAKRAVMAGEILGDNEERLDKPGVKIDPSVKLHLKGKPMPYVSRGGLKLEKALKVFGLDVKGLTVLDIGSSTGGFTDVMLQNGAKLSYALDVGTNQLVWKLREDPRVVVMENTNFRYSKLEDFTEGQPEFASIDVSFISLKLILPALKNIIKTHGSVVSLIKPQFEAGRENVGKHGIVRDRKVHEEVLKNVLAMANAEGFNVKGLDFSPIKGGEGNIEFLAWLERSDTDQGVIEENVDTQKVIDSAYSNLNS
MGSDKIHHHHHHMAKPLFDQLLASAQQARAPFHTPGHKLGRAIATHLQQAWGSAIFQSDLPELPELDNLYAASGVLAESQAQAAEVFGADRSWFLVNGSTGGLLAAILTICSPGDRLLLPRNAHRSLLSGCILSGAMPVWITPPEAADFDLVGVPTPEQVATALAQDPQIKAVVLVSPTYEGVCADVAAIAAIAHNHNLPLIIDAAHGAHLGFHPDLPRSPLHEGADLVVQSTHKLLGALTQAAMLHCKGDRIDPERLSQSLALVQSSSPSYLLLASLEAATEQMRTSAQDLLQVTIDLARQAHQRLAELPGLQLPALKIGNREGFPQWDRTRLVINFQSCGWSGFCADEYLHEQWQVTAELPSLSNLVFHLSLGNRIEDIDRLVTACDRLLSQEHQEELPPRLPVWLEPETILSPRQAWFSRHQTVSAEQAIGAIAAECVCPYPPGIPVLLPGERISKSAVDYLRQVQTTGGILSGCADPELTTLRIVQDSDTIHASCLS
MGSDKIHHHHHHMAKSSLGQDSDSTAAVAVLKRAVELDAESRYQQALVCYQEGIDMLLQVLKGTKESSKRCVLRTKISGYMDRAENIKKYLDQEKEDGKYHKQIKIEENATGFSYESLFREYLHETVTEVWIEDPYIRQTHQLYNFLRFCEMLIKKPCKVRTIHLLTSGYEGLGNTQQSSGLEEIKQSLGSHGVVLEINYSSSIHDREIRFNNGWMIKIGRGLDYFKKPQGRFSLGYYDLDLRPCHETTVDIFHNKHTKKI
MGSDKIHHHHHHMAKVPAKAKPEHALLAVPRELMPRDLRVSLHDYTRGGTDRFLTNGQGAKQDMTGFEDQYVNIIDYIVRITHRIWEEKDIGYIYDTYAHNCRVWDDVGLQYGRDKIVADTTHTINAFPDVKLYADEVIWAGDAEHGFHTSHRTVIKGTNTGFSRWGPPTMRPVNVWCIANCVARENEIFEEHVQYNLGAMLQQLGFDLRALAATARAIGIETDPLFAASGRTRVPGQGKPAHGTPRGDGPFDVADFLCSMTQDVWNRRMLSRLTRAYAPALNYQGPTNRSYRSLAQYQSALLSLLAMFPDLSFEPEALYYMEDGKGTTWSSLRWSATGSHGGFGPYGTPTGREVRIWGITQHKIEGETITEEWMQFNEFDLLRQLAPDPVV
MGSDKIHHHHHHMAKYLYGRRVKLVLLTPHESVTFDYKQTETHSMGIQFNVPFSDSSTPPTCTVTIMNLSAKHRKLFKKGYEVKLYAGYAEDGVGLLSAGVIRAISPFTSDGTNNTFSFTYREGQEYSKLLSSAEKANKKADEARKKKAKVIGKKAAAGLPKIKKHSALSFGKNTAASTIIRRIASDAGITLSKVYLAKPKKYKKGYAAHGKPITNIKAIAKACGSKVYYRRGSIVIDDLSKVKGHNEHILVTEHVKGRHGGTGLIQYPTTDSDSMAKHKTWTVTSLLRYQVSTGSVVTVENRFLKGTFRVKSGEHVCDDSAFTTAMEVYV
MGSDKIHHHHHHMALALTLREYEFSVLLLEARELPEKVDDPRPLALSYGSRLILQRLDIWKNLTQPAPITTIHISNRGHFGHAVLTPDDAGVPALGYVVNYHDLYHSMGRAIRGSNAVYQTNALVTAIRTDLSLAQVAYQQGSTTRQVRARLLVLADGGKLAEQIDGVRYHTYDYQQTAIVANVKVESPRPGTAFERFTLNGPLALLPSGEGYALVWTMPAAAAEKILKLDDRSFLLHLHEQFGDRMGEFTHVGPRSSFPLILKHASTITGHRAVLIGNAAQALHPVAGQGFNLGLRDAWELASEISRIPSGTPGEPGSTRMLAAYSRRRQSDKRISRLFTDSLVKLFTADLPLVQTCSGMGLAALDNLPPARRLIAHQMIFGTKGWFIG
MGSDKIHHHHHHMALIITKKAADLPKPKKPVIGLALGSGAAKGWAHIGVLNGLAKLGIFPDKVAGCSVGALVGAAYANDNLDEIEKWVRGFSSWDVLGLMDIRWRKGGIINGEKVFEVLSSRVGALKIEQLKRAFAAVATDLYSGQEIWFREGDLRHAVRASCSMPGFLPPVQQDDRWLVDGAVVNPVPVSLCRAMGVDLVIAVDLNGHRRGQMMMLPEQVVSHQAEKSQTVTEKPQLESGFMDLWGKSKEYLSGLTEKFSLGVNSHPGMLAVMSQSMDILEQRHKRARLMGDPPDICIVPQVFDIGTMEFHRAAEAIAAGEQAVENISHLLKASIGDFDSAPQR
